The values below come from PMC7483473.

The target in this test is mNeonGreen labeled metabotropic glutamate receptor 3, Q14832. Description: stepwise photobleaching (subunit counting) of single complexes by TIRF; SPReAD: expressing cells co-plated with VSVG-U2OS cells (typically 10:1), fused at pH 5.5, syncytia fixed with 4% paraformaldehyde, room temperature; mGluR lines were HEK293T fused with U2OS. The note with it: remark: other sources report otherwise.

B1: mNeonGreen labeled metabotropic glutamate receptor 3, Q14832 23-879 (receptor)
chain: LGDHNFLRREIKIEGDLVLGGLFPINEKGTGTEECGRINEDRGIQRLEAMLFAIDEINKDDYLLPGVKLGVHILDTCSRDTYALEQSLEFVRASLTKVDEAEYMCPDGSYAIQENIPLLIAGVIGGSYSSVSIQVANLLRLFQIPQISYASTSAKLSDKSRYDYFARTVPPDFYQAKAMAEILRFFNWTYVSTVASEGDYGETGIEAFEQEARLRNICIATAEKVGRSNIRKSYDSVIRELLQKPNARVVVLFMRSDDSRELIAAASRANASFTWVASDGWGAQESIIKGSEHVAYGAITLELASQPVRQFDRYFQSLNPYNNHRNPWFRDFWEQKFQCSLQNKRNHRRVCDKHLAIDSSNYEQESKIMFVVNAVYAMAHALHKMQRTLCPNTTKLCDAMKILDGKKLYKDYLLKINFTAPFNPNKDADSIVKFDTFGDGMGRYNVFNFQNVGGKYSYLKVGHWAETLSLDVNSIHWSRNSVPTSQCSDPCAPNEMKNMQPGDVCCWICIPCEPYEYLADEFTCMDCGSGQWPTADLTGCYDLPEDYIRWEDAWAIGPVTIACLGFMCTCMVVTVFIKHNNTPLVKASGRELCYILLFGVGLSYCMTFFFIAKPSPVICALRRLGLGSSFAICYSALLTKTNCIARIFDGVKNGAQRPKFISPSSQVFICLGLILVQIVMVSVWLILEAPGTRRYTLAEKRETVILKCNVKDSSMLISLTYDVILVILCTVYAFKTRKCPENFNEAKFIGFTMYTTCIIWLAFLPIFYVTSSDYRVQTTTMCISVSLSGFVVLGCLFAPKVHIILFQPQKNVVTHRLHLNRFSVSGTGTTYSQSSASTYVPTVCNGREVLDSTTSSL
In turn, B1 registered a fraction by stepwise photobleaching (dimer fraction, as the sentence seems to mean) of 33.5%.
